Test results reported in patent publication US20250186620A1 (DUKE UNIVERSITY, published 2025).
Changes are numbered by the printed parent chain. In names and notes the source's numbering stands.

T1: human connexin36 (Cx36) (human, UniProt Q9UKL4 1-321)
T1 construct: whole, on cells; Hemichannel expressed in HEK 293FT cells for FETCH; also called GJD2; not shown: C-terminal fluorescent protein fusion (mEmerald or RFP670 in FETCH)
T1 sequence (looked up): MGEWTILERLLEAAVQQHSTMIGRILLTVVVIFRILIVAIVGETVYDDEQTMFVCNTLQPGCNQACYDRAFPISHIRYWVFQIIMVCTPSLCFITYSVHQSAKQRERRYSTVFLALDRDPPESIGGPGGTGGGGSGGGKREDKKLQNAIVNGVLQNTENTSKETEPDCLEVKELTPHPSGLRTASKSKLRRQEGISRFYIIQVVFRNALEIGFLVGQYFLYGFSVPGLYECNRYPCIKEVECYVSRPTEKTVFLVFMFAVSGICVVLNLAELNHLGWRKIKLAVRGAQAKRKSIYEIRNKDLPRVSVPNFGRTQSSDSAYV

T2: Wild-type Connexin35 (Cx35) of Morone americana (Morone americana)
T2 construct: Connexin hemichannel (hexamer) expressed in HEK 293FT cells; In C. elegans it was expressed as GFP or mCherry fusion; also called Cx35WT; not shown: C-terminal fluorescent protein fusion (mEmerald or RFP670 in FETCH)
T2 chain: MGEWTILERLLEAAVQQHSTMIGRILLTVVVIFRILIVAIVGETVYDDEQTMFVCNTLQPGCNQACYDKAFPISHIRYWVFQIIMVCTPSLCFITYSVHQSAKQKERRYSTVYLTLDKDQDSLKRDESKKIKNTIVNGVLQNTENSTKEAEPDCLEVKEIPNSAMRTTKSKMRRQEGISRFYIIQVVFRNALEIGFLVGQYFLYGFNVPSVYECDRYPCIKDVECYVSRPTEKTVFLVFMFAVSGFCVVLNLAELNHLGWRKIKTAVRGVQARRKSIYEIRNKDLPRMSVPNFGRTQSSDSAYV

T3: Cx35E224H (Morone americana Cx35 mutant E224H) (Morone americana)
T3 construct: Extracellular loop mutant of the screening library; not shown: C-terminal fluorescent protein fusion (mEmerald or RFP670 in FETCH)
T3 chain: T2 chain with E224H

T4: Cx35E224K (Morone americana Cx35 mutant E224K) (Morone americana)
T4 construct: Extracellular loop mutant of the screening library; not shown: C-terminal fluorescent protein fusion (mEmerald or RFP670 in FETCH)
T4 chain: T2 chain with E224K

B1: Cx34.7E214K/E223K/E225K (Morone americana Cx34.7 triple mutant) (protein, not shown: large carriers)
chain: MGEWTILERLLEAAVQQHSTMIGRILLTVVVIFRILIVAIVGETVYEDEQAMFICNTLQPGCNQACYDKAFPISHIRYWVFQIILVCTPSLCFITYSVHQSAKQKDRRYSFLYPIMERDYGGRDGARKLRNINGILVQHGGDGGGGKEEPDCLEVKEIPNAPRGLTHGKSSKVRRQEGISRFYIIQVVFRNALEIGFLAGQYFLYGFSVPGIFKCDRYPCLKKVKCYVSRPTEKTVFLVFMFAVSGICVVLNLAELNHLGWRKIKAAIRGVQARRKSICEIRKKDMAHLSQPPNLGRTQSSESAYV
B2: Wild-type Connexin34.7 (Cx34.7) of Morone americana (other)
chain: B1 chain with K214E, K223E, K225E
notes: In C. elegans it was expressed as GFP or mCherry fusion; also called Cx34.7WT; not shown: C-terminal fluorescent protein fusion (mEmerald or RFP670 in FETCH)
B3: Cx34.7E214K/E223K (designer connexin Cx34.7M1, Morone americana Cx34.7 with E214K and E223K) (other)
chain: B1 chain with K225E
notes: Rationally designed hemichannel; In C. elegans expressed as GFP or mCherry fusion; in mice from AAV9 as mEmerald or mApple fusion; not shown: C-terminal fluorescent protein fusion (mEmerald or RFP670 in FETCH)
B4: Cx34.7K222Q (Morone americana Cx34.7 mutant K222Q) (other)
chain: B1 chain with K214E, K222Q, K223E, K225E
notes: Extracellular loop mutant of the screening library; not shown: C-terminal fluorescent protein fusion (mEmerald or RFP670 in FETCH)
B5: Cx35E224R (Morone americana Cx35 mutant E224R) (other)
chain: T2 chain with E224R
notes: as for B4
B6: Cx35K221E (designer connexin Cx35M1, Morone americana Cx35 with K221E) (other)
chain: T2 chain with K221E
notes: Rationally designed hemichannel; In C. elegans expressed as GFP or mCherry fusion; in mice from AAV9 as mApple or mEmerald fusion; not shown: C-terminal fluorescent protein fusion (mEmerald or RFP670 in FETCH)

Columns and labels:
[1] = target: Cx34.7E214K/E223K/E225K (Morone americana Cx34.7 triple mutant) (Morone americana); assay: FETCH (flow cytometry, % dual-labelled HEK 293FT cells), homotypic
[2] = target: T1, human connexin36 (Cx36); assay: FETCH (flow cytometry, % dual-labelled HEK 293FT cells), heterotypic
Procedure: (§1) Complete FETCH methodology is outlined in Ransey et. al. 2021 (Ransey E, et al. (2021) BioRxiv). Briefly, replica multi-well plates with HEK 293FT cells were transfected with either of the two connexin proteins being evaluated for docking. Following a transfection incubation period, experimental counterparts were combined, replated, and further incubated for about 20 hr to about 24 hrs, allowing cells to make contacts and potentially generate connexosomes. Co-plated samples were trypsinized, fixed in suspension and analyzed via flow cytometry. Flow cytometry data was processed with two selection gates prior to their fluorescence evaluation. First, putative HEK cells were identified by evaluating sample forward vs. side scatter area. Next, single cells were identified as the putative cells that maintained a linear correlation of forward scatter height to forward scatter area. Finally, the dual fluorescence (mEmerald vs. RFP670) profiles of each sample was generated, and the FETCH score was defined as the proportion of dual-labeled fluorescent cells that develop in a co-plated sample.

[3] = target: T2, Wild-type Connexin35 (Cx35) of Morone …; assay: heterotypic FETCH
Procedure: as §1

[4] = target: T5, human connexin43 (Cx43) (human, UniProt P17302 2-382); assay: FETCH (flow cytometry, % dual-labelled HEK 293FT cells), heterotypic
T5 construct: whole, on cells; Hemichannel expressed in HEK 293FT cells for FETCH; also called GJA1; not shown: C-terminal fluorescent protein fusion (mEmerald or RFP670 in FETCH)
Procedure: as §1

[5] = target: B6; assay: as above
Procedure: as §1

[6] = target: the molecule itself; assay: homotypic FETCH
Procedure: as §1

[7] = target: the molecule itself; assay: FETCH (flow cytometry, % dual-labelled HEK 293FT cells), homotypic
Procedure: as §1

[8] = target: T1, human connexin36 (Cx36); assay: heterotypic FETCH
Procedure: as §1

[9] = target: T5, human connexin43 (Cx43); assay: heterotypic FETCH
Procedure: as §1

[10] = target: T5, human connexin43 (Cx43); assay: FETCH (flow cytometry, % dual-labelled HEK 293FT cells), heterotypic, n=6
Procedure: as §1

[11] = target: B5; assay: heterotypic FETCH; score higher than for the wild type Cx34.7WT/Cx35WT pair
Procedure: as §1
(§2) For screening analysis, five FETCH replicates were obtained for each condition (mutation). These scores were benchmarked against scores for Cx36 and Cx45 (FETCH=1.2±0.1%, n=54 replicates). To quantitatively determine whether a connexin pair docked, FETCH scores were determined for the dual fluorescence of cells under conditions where docking was not anticipated. These conditions included pairs of connexins previously established to not show docking: (i) Cx36 and Cx45 (FETCH=0.7±0.0%, n=59 replicates), (ii) homotypic Cx23 (FETCH=0.9±0.4%, n=6 previously collected replicates (Ransey E, et al. (2021) BioRxiv), and (iii) Cx36 and Cx43 (FETCH=1.2±0.2%, n=10 previously collected replicates (Ransey E, et al. (2021) BioRxiv), and under conditions for which cells were transfected with cytoplasmic fluorophores rather than tagged connexins (FETCH=4.4±0.6%, n=17 previously collected replicates (Ransey E, et al. (2021) BioRxiv).

[12] = target: T3, Cx35E224H (Morone americana Cx35 mutant …); assay: as above
Procedure: as §1, §2

[13] = target: T4, Cx35E224K (Morone americana Cx35 mutant …); assay: as above
Procedure: as §1, §2

[14] = target: the molecule itself; assay: homotypic FETCH screen
Procedure: as §1, §2

[15] = target: Cx34.7E214K/E223K/E225K (Morone americana Cx34.7 triple mutant) (Morone americana); assay: FETCH (flow cytometry, % dual-labelled HEK 293FT cells), heterotypic

T5 sequence (P17302 2-382): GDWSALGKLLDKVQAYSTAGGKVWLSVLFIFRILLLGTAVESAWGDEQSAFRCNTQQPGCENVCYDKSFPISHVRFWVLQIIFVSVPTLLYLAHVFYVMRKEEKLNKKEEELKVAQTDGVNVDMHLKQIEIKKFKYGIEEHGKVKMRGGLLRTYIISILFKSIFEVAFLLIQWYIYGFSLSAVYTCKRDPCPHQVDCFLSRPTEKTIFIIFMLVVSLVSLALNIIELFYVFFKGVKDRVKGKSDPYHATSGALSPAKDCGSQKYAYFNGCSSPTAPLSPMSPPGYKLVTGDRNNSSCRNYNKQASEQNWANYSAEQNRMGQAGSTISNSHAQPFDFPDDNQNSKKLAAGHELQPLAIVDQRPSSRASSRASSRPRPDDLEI

Row | Binder | FETCH score [2] | FETCH score [4] | binding result [6] | FETCH score [7] | binding result [8] | binding result [9] | FETCH score [10] | binding result [14] | further results
1 | B1 | – | – | – | – | – | – | – | – | FETCH score [1]: 0.2%
2 | B2 | 11.9% | – | – | – | – | – | – | – | binding result [3]: binds
3 | B3 | 1% | 0.9% | no binding | 1.1% | no binding | no binding | – | – | FETCH score [5]: 35.7%
4 | B4 | 22.8% | – | – | 0.4% | – | no binding | 1.3% | no binding | binding result [11]: binds; binding result [12]: binds; binding result [13]: binds
5 | B5 | 0.6% | – | – | – | no binding | no binding | 0.5% | no binding | –
6 | B6 | 1.5% | 1.7% | no binding | 1.2% | no binding | no binding | – | – | FETCH score [15]: 1.2%
